The text below walks through data of patent US20160017055A1 (Takeda / Millennium, published 2016).

This assay has as its target T1, plasma kallikrein Mutant 2 (catalytic domain; R551A, Q553A, Y555A, T558A, R560A) (human, UniProt P03952 391-638).
T1 construct: Mutations in a subsite of the active site (printed 'S subsite')
Put plainly: Ki,app; inhibition of PKal catalytic domain activity, Morrison fit. The protocol:
Briefly, PKal and a Fab at various concentrations are incubated together for 1 hour at 30° C. A substrate peptide (cleavable by PKal) is then added to this PKal-Fab mixture. The rate of substrate peptide cleavage/proteolysis is then measured, and plotted against the concentrations of the Fab. This plot is then fit to the Morrison equation, which calculates the K_{i,app} value.
The inhibitory activity of X₁₁₅-F02 against the wild-type PKal and the mutants were carried out using the method described in Example 2 above and the K_{i,app} values were determined.

T1 sequence (P03952 391-638 C503S/R551A/Q553A/Y555A/T558A/R560A limits assumed): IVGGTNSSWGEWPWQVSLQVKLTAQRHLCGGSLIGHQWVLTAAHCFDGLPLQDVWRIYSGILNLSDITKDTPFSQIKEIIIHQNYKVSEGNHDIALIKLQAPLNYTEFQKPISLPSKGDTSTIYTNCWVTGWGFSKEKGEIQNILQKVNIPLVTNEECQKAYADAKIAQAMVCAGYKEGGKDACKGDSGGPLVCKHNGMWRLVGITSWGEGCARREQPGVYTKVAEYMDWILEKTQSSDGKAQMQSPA

B1: X115-F02 (antibody, human IgG1, kappa, V domains shown)
VH: EVQLLESGGGLVQPGGSLRLSCAASGFTFSHYIMMWVRQAPGKGLEWVSGIYSSGGITVYADSVKGRFTISRDNSKNTLYLQMNSLRAEDTAVYYCAYRRIGVPRRDEFDIWGQGTMVTVSS
VL: DIQMTQSPSTLSASVGDRVTITCRASQSISSWLAWYQQKPGKAPKLLIYKASTLESGVPSRFSGSGSGTEFTLTISSLQPDDFATYYCQQYNTYWTFGQGTKVEIKR
Consider B1, for which the “fold reduction of inhibitory potency (Ki,app) against wild-type PKal” value is about 65 fold.
